Where two headings read alike, the source gives them in different places.
T1: human TREK-2 protein (residues Gly67 to Glu340) (human)
T1 chain: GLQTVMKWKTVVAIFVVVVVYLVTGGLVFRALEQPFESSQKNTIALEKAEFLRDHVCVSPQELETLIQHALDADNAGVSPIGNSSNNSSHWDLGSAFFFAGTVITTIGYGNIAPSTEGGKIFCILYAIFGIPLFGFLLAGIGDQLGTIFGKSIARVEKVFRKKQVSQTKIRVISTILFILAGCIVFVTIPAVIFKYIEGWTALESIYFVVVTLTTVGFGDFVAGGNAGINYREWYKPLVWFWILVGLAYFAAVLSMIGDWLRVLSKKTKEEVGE

T2: biotinylated TREK-2 (Homo sapiens, biotin (site not stated))
T2 construct: the buffer (OGNG/CHS) is that of the cryo-EM sample
T2 chain: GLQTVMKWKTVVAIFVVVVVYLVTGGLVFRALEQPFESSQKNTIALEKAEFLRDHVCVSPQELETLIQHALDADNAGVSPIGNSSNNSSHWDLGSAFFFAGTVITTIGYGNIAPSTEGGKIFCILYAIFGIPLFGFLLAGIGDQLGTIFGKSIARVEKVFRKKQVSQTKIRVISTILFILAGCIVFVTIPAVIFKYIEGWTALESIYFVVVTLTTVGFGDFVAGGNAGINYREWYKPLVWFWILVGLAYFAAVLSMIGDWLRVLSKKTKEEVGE

B1: CA10779 (VHH)
VHH: QVQLVESGGGAVQAGGSLRLSCASSDHSFTRYTIAWFRQAPGKEREFVAALTWNGGITNYADSVKGRFTISRENGKNTAYLQMDALESEDTAVYYCAAVFGPASLTREDMYEYWGQGTQVTVSS
B2: CA10777 (VHH)
VHH: QVQLVESGGGLVQPGGSLRLSCAASGLIARLIDWGWYRQAPGKQRELVAAITAGGRTNYTDSVKGRFTISRDDPKNTVYLQMSALKPEDTAVYYCCVDFRSYAGKQYHYCGQGTQVTVSS
B3: CA10764 (VHH)
VHH: QVQLVESGGGLAQAGGSLRLSCAASGRTFSNYAMGWFRQAPGKEREFVATISSSGGTIRYADSVKGRFTISRDNAKNTVALQMNVLKPEDTAVYYCAQSKYGRAWSDRYEYDRWGQGTQVTVSS
B4: Nb-Binder-57 fused to mVenus (VHH)
VHH: QVQLVESGGGLVQAGDSLRLSCASSGRALSNVAMGWFRQAPGKEREIVAAISWSGDNTYYADSGRGRFTISRDNAKNTVYLQMNNLRPEDTAVYYCAADGRGNLRRGTAGRYVDYWGQGTQVTVSS
notes: mVenus joined by a (GS)2 linker; also called CA10757; Nb57; source: cloned into the pFAW vector; not shown: mVenus, C-terminal, kept
B5: CA10770 (VHH)
VHH: QVQLVESGGGLVQAGGSLRLSCAASGRSFSSYRMAWFRQAPGLEREFVAAISRSGSNTDYADSVKGRFTISRDNAKNTVYLQMNSLKPDDTAVYFCAANTSPLLGSVATGQEYYIYWAQGTQVTVSS
B6: CA10766 (VHH)
VHH: QVQLVESGGGLVQAGGSLRLSCAASGRSFSTYGIGWFRQAPGRERDLVASISWSGGGTYYADSVKGRSTISRDNAKNMVDLQMNSLKPEDTAVYYCAARRLGGVGRIVQYDYWGQGTQVTVSS
B7: CA10773 (VHH)
VHH: QVQLVESGGGLVQPGGSLRLSCAASGFTFSSYPMSWARQAPGKGLEWVSAINRGGSSTNYADSVKGRFTISRDNAKNTLYLQMDSLKPEDTAVYYCFKGGTRGQGTQVTVSS
B8: CA10774 (VHH)
VHH: QVQLVESGGGLVQPGGTLRLSCAASGFTFSSKPMSWARQAPGKGLEWVSAISRDGSSTNYADSVKGRFTISRNNAWNTLYLQMDNLKPEDTAVYYCFMGGTRGQGTQVTVSS
B9: CA10755 (VHH)
VHH: QVQLVESGGGLVQAGGSLRLSCAASRSIVTINAMSWHRQAPGKQRELVASITKRGRTNIADSVKGRFAISWDRNTVYLQMNSLKPEDTAVYYCAALTDIPMNTYWGQGTQVTVSS
B10: CA10778 (VHH)
VHH: QVQLVESGGGLVQAGGSLRLSCAASRGIFTITAMSWHRQAPGKQRELVASITRRGRTNIADSVKDRFAISWDKNTVYLQMNSLKPEETAVYYCAALTDAPMNTYWGQGTQVTVSS
B11: CA10756 (VHH)
VHH: QVQLVESGGGLVQAGGSLRLSCAASRSFVTINAISWHRQAPGKQRELVASITKRGRTNIADSVKGRFAISWDKNTVYLQMNSLKPEDTANYYCAALTDIPVNTYWGQGTQVTVSS
B12: CA10754 (VHH)
VHH: QVQLVESGGGLVQAGGSLRLSCAASGRTFSTYAMSWFRQAPGKEREFVARIRWSTTRTSSTYYADSVKGRFTISGDNAKNTVYLQMDSLKPEDTAVYYCAAVINPYSSAYEYWGQGTQVTVSS
B13: CA10771 (VHH)
VHH: QVQLVESGGGLVQAGGSLRLSCAASGRTASLYAMDWFRQAPGKEREFVARLILSTFGTNYADSVKGRFTFSRDNAKNTVYLQMNNLKPEDTGVYFCAAHSLTSTNWDQGTQVTVSS
B14: CA10763 (VHH)
VHH: QVQLVESGGGLVQAGGSLRLSCAASGLTFSGYPMGWFRQAPGKEREFVATISRSGNNMHYADSVKGRFTISRDNAKNTVSLQMNSLKPEDTAVYYCAADSTTLRRGVASVEYWGQGTQVTVSS
B15: CA10769 (VHH)
VHH: QVQLVESGGGLVQAGDSLRLSCAASGRTSSSDVMGWFRQAPGKGREFVAETSWRGGKTAYADSVKGRFAISRDNAKNTVYLQMNNLKPEDTAVYYCAVLHADSSTYAYWGQGTRVTVSS
B16: Nb-Binder-58 fused to the mVenus fluorescent protein (VHH)
VHH: QVQLVESGGGLVQAGGSLRLSCAASGRAGSGYAMGWFRQAPGKEREIVGAISWSGDNTYYADSVRGRVTISRDYAQNTVYLQMNSLKPEDTAVYYCAADGRGNLRRGTAGRYVEYWGQGTQVTVSS
notes: as the VHH of m9 (Nb58); mVenus joined by a (GS)2 linker; also called Nb58 fused to mVenus; source: cloned into the pFAW vector; not shown: mVenus, C-terminal, kept
B17: Nb-Binder-58 (VHH)
VHH: QVQLVESGGGLVQAGGSLRLSCAASGRAGSGYAMGWFRQAPGKEREIVGAISWSGDNTYYADSVRGRVTISRDYAQNTVYLQMNSLKPEDTAVYYCAADGRGNLRRGTAGRYVEYWGQGTQVTVSS
notes: also called CA10758; Nb58; source: E. coli WK6, periplasm, purified (Ni-NTA)
B18: CA10765 (VHH)
VHH: QVQLVESGGGLVQAGGSLRLSCAASGFTFDDYAIGWFRQAPGKEREGVSCISSSDGSTYYADSVKGRFTISSDNAKNTVYLQMNSLKPEDTAVYYCAADPYLYCSDYGDSGTLSYYGVDYWGKGTQVTVSS
B19: CA10772 (VHH)
VHH: QVQLVESGGGLVQPGGSLRLSCAASGFTFSAYAMRWHRQAPGKGLEWVSSIDHSGAWPNYADSVKGRFTISRDNAKNTLYLQMDSLKPEDTAVYYCSKAGFRGQGTQVTVSS
B20: CA10759 (VHH)
VHH: QVQLVESGGGLVQAGGSLRLSCAASGLTFSRYNMGWFRQAPGKEREFVAAINRYGGTMYATDSVKGRFTISRDNVKSTVDLQMNRLKPEDTAVYYCAADQQYMSRLEADFGSWGQGTQVTVSS
B21: CA10760 (VHH)
VHH: QVQLVESGGGLVQAGGSLRLSCAASGLTFSAYNMGWFRQAPGKEREFVAAINRYGGTLYTTDSVKGRFTISRDNVKSTVDLQMNRLEPEDTAVYYCAADQQYMSRLEADFGSWGQGTQVTVSS
B22: CA10780 (VHH)
VHH: QVQLVESGGGLVQAGGSLRLSCAASGRTFSSYAMGWFRQAPGKEREFVAAISWSGGSTYYADSVKGRFTVSRDNAKNTVYLQMNSLKPEDTAVYYCAADSISTAQAMRVNERDYGMDYWGKGTQVTVSS
B23: Nb-Inhibitor-61 (VHH)
VHH: QVQLVESGGGLVQAGDSLRVSCAGSGFTFTSYGMGWFRQAPGKEREFVASINWNSNTAYADSVRGRFTISRDNAESMMYLQMNSLKPEDTAVYYCAATRAYSKPRVDSRHYDYWGQGTQVTVSS
notes: also called CA10761; Nb61; source: E. coli WK6, periplasm, purified (Ni-NTA)
B24: CA10752 (VHH)
VHH: QVQLVESGGGLVQAGGSLRLSCAASGRTSSTYAMSWFRQPPGKEREFVARIRWSGSNTYYADSVKGRFTISGDNAKNTVYLQMNSLKAEDTAVYYCAAVIDPYSSAYEYWGQGTQVTVSS
B25: CA10753 (VHH)
VHH: QVQLVESGGGLVQAGGSLRLSCAASGRTFSTYAMSWFRQAPGKEREFVARIRWSGTSTAYADSVKGRFFISGDNAKNTVYLQMNSLKPEDTAVYYCAAVINPYSSAYEYWGQGTQVTVSS

Tests used:
[1] = biological target: T1, human TREK-2 protein (residues Gly67 to …)
TREK-2-mCherry fusion = biological target: T3, TREK-2-mCherry fusion (Homo sapiens, UniProt P57789-4, strain); experiment: immunostaining of cells or tissue; HEK293T cells transfected with K2P-mCherry, fixed with 4% formaldehyde, incubated with nanobody-mVenus for 2 h at 37 °C, washed, imaged for overlap of the two fluorescent signals
T3 construct: The legend says HEK-293, the methods HEK293T; also called TREK-2 tagged with the mCherry fluorescent protein; K2P-mCherry-pFAW; source: HEK293T, transfected (pFAW vector), fixed cells; not shown: mCherry, C-terminal, kept
T3 sequence (P57789 whole entry, looked up, stated change not applied, the tested form may be a part): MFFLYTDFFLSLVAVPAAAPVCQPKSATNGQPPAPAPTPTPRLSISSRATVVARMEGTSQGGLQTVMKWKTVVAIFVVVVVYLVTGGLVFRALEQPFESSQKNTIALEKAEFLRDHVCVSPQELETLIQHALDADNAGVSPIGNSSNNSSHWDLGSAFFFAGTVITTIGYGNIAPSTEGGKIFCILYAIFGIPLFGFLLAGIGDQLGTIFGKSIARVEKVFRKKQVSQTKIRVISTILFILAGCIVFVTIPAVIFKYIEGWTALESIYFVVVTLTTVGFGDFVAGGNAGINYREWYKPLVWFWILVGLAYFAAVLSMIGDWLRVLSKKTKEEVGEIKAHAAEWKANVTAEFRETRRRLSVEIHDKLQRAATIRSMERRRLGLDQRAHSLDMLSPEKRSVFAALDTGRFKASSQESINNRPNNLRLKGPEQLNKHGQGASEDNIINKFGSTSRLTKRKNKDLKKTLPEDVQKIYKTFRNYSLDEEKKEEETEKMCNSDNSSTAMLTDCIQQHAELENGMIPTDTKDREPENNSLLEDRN

[2] = biological target: T4, TREK-1 tagged with mCherry (Homo sapiens, UniProt O95069); experiment: as above
T4 construct: human TREK-1 K2P channel, stop codon removed and mCherry fused in frame to the C-terminus by a (GS)2 linker; source: HEK293T, transfected (pFAW vector), fixed cells; not shown: mCherry, C-terminal, kept
T4 sequence (O95069 whole entry, the tested form may be a part): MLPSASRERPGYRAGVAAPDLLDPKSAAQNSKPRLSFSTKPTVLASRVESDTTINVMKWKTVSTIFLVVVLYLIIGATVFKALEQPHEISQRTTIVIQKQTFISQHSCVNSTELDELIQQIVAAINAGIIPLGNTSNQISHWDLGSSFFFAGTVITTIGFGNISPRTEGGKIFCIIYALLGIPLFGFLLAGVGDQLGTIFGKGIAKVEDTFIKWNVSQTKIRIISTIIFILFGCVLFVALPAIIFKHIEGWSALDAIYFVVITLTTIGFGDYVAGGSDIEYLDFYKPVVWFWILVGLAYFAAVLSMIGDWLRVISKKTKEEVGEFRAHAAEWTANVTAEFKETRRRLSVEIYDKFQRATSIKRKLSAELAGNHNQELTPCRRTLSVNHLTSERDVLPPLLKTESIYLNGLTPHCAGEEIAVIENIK

[3] = biological target: T1, human TREK-2 protein (residues Gly67 to …); experiment: SEC; each nanobody mixed with purified TREK-2 in a 2:1 molar ratio, Sepax SRT SEC-300 column in 200 mM KCl, 20 mM HEPES pH 7.5; shift of the 280 nm TREK-2 peak against TREK-2 alone; conditions: both partners purified
biotinylated TREK-2 = biological target: T2, biotinylated TREK-2; experiment: BLI; Octet Red; biotinylated TREK-2 (50 nM) loaded on streptavidin biosensors in 200 mM KCl, 20 mM HEPES pH 7.5, 0.12% OGNG, 0.012% CHS; nanobody dilutions 2 µM-7.8 nM (Nb61) and 1000 nM-3.9 nM (Nb6158); 600 s association, 600 s dissociation; conditions: both partners purified

Binder	binding result [1]	other results
B1	binds	–
B2	binds	–
B3	binds	–
B4	–	binding result (TREK-2-mCherry fusion): binds; binding result [2]: no binding
B5	binds	–
B6	binds	–
B7	binds	–
B8	binds	–
B9	binds	–
B10	binds	–
B11	binds	–
B12	binds	–
B13	binds	–
B14	binds	–
B15	binds	–
B16	–	binding result (TREK-2-mCherry fusion): binds; binding result [2]: no binding
B17	–	binding result [3]: binds
B18	binds	–
B19	binds	–
B20	binds	–
B21	binds	–
B22	binds	–
B23	–	Kd (biotinylated TREK-2): 1.1 µM
B24	binds	–
B25	binds	–

— article PMC11099193, “Extracellular modulation of TREK-2 activity with nanobodies provides insight into the mechanisms of K2P channel regulation” (Nature Communications, 2024)
